Paper PMC4470041
pKi: −log10 of the molar value.

Target: CCR5 expressed in HEK 293T cells (HEK-CCR5 cells) (UniProt P51681)
Assay: radioligand binding

Sequence of UniProt P51681 (P51681 whole entry): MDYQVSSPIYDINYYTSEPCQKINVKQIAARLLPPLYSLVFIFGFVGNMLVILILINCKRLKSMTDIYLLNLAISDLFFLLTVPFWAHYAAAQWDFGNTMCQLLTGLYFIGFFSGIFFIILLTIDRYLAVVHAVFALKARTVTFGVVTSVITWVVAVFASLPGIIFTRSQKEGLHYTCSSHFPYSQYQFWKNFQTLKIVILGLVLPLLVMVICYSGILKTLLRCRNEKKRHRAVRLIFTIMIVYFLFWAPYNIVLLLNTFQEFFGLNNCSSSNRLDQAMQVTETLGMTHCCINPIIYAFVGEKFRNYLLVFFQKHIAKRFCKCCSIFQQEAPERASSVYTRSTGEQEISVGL

In the case of “gp120 from the R5 HIV-1 primary strain Bx08 (natural protein)”, the pKi was 8.20.
